We go through one molecule from PMC10716581, “Fanconi anemia-associated mutation in RAD51 compromises the coordinated action of DNA-binding and ATPase activities”.

The target of this data set is RAD51-Q242R (human, UniProt Q06609 1-339, Q242R). The data set is described as follows: EMSA; 2 mM ATP, 10 mM Mg2+; 20 mM Hepes-NaOH pH 7.5, 0.1 mg/ml BSA, 1 mM DTT, 10 mM MgCl2, 150 mM KCl, 2 mM ATP or AMP-PNP or no nucleotide, 2.7 uM (nt) DNA, 37 C 10 min; 8% native PAGE in 1x TBE. The following applies: protein: recombinant; tags: N-terminal His-tag removed with thrombin; chain copies: 8; label: 5'-Cy5 on strand 1; blunt.
RAD51-Q242R, sequence (Q06609 whole entry Q242R): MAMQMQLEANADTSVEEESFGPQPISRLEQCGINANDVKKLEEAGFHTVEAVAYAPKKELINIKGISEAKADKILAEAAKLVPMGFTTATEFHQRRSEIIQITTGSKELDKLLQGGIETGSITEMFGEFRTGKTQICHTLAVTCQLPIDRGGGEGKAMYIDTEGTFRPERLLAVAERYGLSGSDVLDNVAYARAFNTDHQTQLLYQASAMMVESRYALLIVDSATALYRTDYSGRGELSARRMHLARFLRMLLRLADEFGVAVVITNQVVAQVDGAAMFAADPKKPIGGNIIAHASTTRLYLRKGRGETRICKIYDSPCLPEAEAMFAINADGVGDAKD

B1: Cy5-OL4/OL5 40-mer (dsDNA)
DNA 1: TAATACAAAATAAGTAAATGAATAAACAGAGAAAATAAAG
DNA 2: CTTTATTTTCTCTGTTTATTCATTTACTTATTTTGTATTA
Consider B1, for which the binding result is “binds”.
